Source: the supplement of paper PMC10567573

B1: STK38L (parent)
chain: RQLAYSTVGTPDYIAPEVFMQTGY

Variants of: B1
Assay: protein stability index of a GFP-peptide fusion (GPS, HEK-293T) (PSI 1-6); higher = more stable
Conditions: c terminus: a fixed tail appended
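Note: lentivirally expressed fusions sorted by FACS into six bins by GFP to DsRed ratio, PSI derived from sequencing read proportions per bin multiplied by bin number.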

Variant | protein stability index
RQLAYSTVGTPDYIAPEVFCQTGY | 2.63
RQLAYSTVGTPDYIAPEVFAQTGY | 2.78
RQLAYSTVWTPDYIAPEVFMQTGY | 1.89
RQLAYSTVYTPDYIAPEVFMQTGY | 2.9
RQLAYSTVGRPDYIAPEVFMQTGY | 2.86
RQLAYSTVGNPDYIAPEVFMQTGY | 2.05
RQLAYSTVGYPDYIAPEVFMQTGY | 1.72
RQLAYSTVGGPDYIAPEVFMQTGY | 3.01
RQLAYSTVGPPDYIAPEVFMQTGY | 2.48
RQLAYSTVGKPDYIAPEVFMQTGY | 2.17
RQLAYSTVGCPDYIAPEVFMQTGY | 2.18
RQLAYSTVGLPDYIAPEVFMQTGY | 1.96
RQLAYSTVGEPDYIAPEVFMQTGY | 2.89
RQLAYSTVGIPDYIAPEVFMQTGY | 1.3
RQLAYSTVGAPDYIAPEVFMQTGY | 2.88
RQLAYSTVGDPDYIAPEVFMQTGY | 2.16
RQLAYSTVGFPDYIAPEVFMQTGY | 1.73
RQLAYSTVGMPDYIAPEVFMQTGY | 2.61
RQLAYSTVGSPDYIAPEVFMQTGY | 1.42
RQLAYSTVGHPDYIAPEVFMQTGY | 2.36
RQLAYSTVGVPDYIAPEVFMQTGY | 2.27
RQLAYSTVGWPDYIAPEVFMQTGY | 1.72
RQLAYSTVGQPDYIAPEVFMQTGY | 3.41
RQLAYSTVGTPDYIWPEVFMQTGY | 1.58

Variant | protein stability index
RQLAYSTVGTPDYINPEVFMQTGY | 2.21
RQLAYSTVGTPDYICPEVFMQTGY | 2.57
RQLAYSTVGTPDYIQPEVFMQTGY | 3.4
RQLAYSTVGTPDYITPEVFMQTGY | 2.4
RQLAYSTVGTPDYIRPEVFMQTGY | 2.27
RQLAYSTVGTPDYIKPEVFMQTGY | 2.46
RQLAYSTVGTPDYIHPEVFMQTGY | 2.1
RQLAYSTVGTPDYIIPEVFMQTGY | 1.43
RQLAYSTVGTPDYIDPEVFMQTGY | 2.93
RQLAYSTVGTPDYIGPEVFMQTGY | 3.12
RQLAYSTVGTPDYIFPEVFMQTGY | 1.98
RQLAYSTVGTPDYILPEVFMQTGY | 2.3
RQLAYSTVGTPDYIMPEVFMQTGY | 2.19
RQLAYSTVGTPDYIEPEVFMQTGY | 3.15
RQLAYSTVGTPDYIPPEVFMQTGY | 3.29
RQLAYSTVGTPDYIYPEVFMQTGY | 1.68
RQLAYSTVGTPDYISPEVFMQTGY | 2.78
RQLAYSTVGTPDYIVPEVFMQTGY | 2.28
RQLAYSTVGTPDYIAGEVFMQTGY | 1.96
RQLAYSTVGTPDYIANEVFMQTGY | 2.81
RQLAYSTVGTPDYIAREVFMQTGY | 2.12
RQLAYSTVGTPDYIAIEVFMQTGY | 3.9
RQLAYSTVGTPDYIAHEVFMQTGY | 2.17
RQLAYSTVGTPDYIAMEVFMQTGY | 2.13

Variant | protein stability index
RQLAYSTVGTPDYIAQEVFMQTGY | 2.35
RQLAYSTVGTPDYIALEVFMQTGY | 1.57
RQLAYSTVGTPDYIAKEVFMQTGY | 1.91
RQLAYSTVGTPDYIACEVFMQTGY | 2.29
RQLAYSTVGTPDYIADEVFMQTGY | 2.46
RQLAYSTVGTPDYIAEEVFMQTGY | 2.96
RQLAYSTVGTPDYIASEVFMQTGY | 2.16
RQLAYSTVGTPDYIAAEVFMQTGY | 2.3
RQLAYSTVGTPDYIAYEVFMQTGY | 1.89
RQLAYSTVGTPDYIAFEVFMQTGY | 2.79
RQLAYSTVGTPDYIATEVFMQTGY | 1.82
RQLAYSTVGTPDYDAPEVFMQTGY | 2.81
RQLAYSTVGTPDYWAPEVFMQTGY | 1.95
RQLAYSTVGTPDYAAPEVFMQTGY | 3.13
RQLAYSTVGTPDYHAPEVFMQTGY | 2.57
RQLAYSTVGTPDYGAPEVFMQTGY | 2.65
RQLAYSTVGTPDYSAPEVFMQTGY | 3.12
RQLAYSTVGTPDYVAPEVFMQTGY | 2.54
RQLAYSTVGTPDYLAPEVFMQTGY | 2.92
RQLAYSTVGTPDYMAPEVFMQTGY | 2.4
RQLAYSTVGTPDYFAPEVFMQTGY | 1.57
RQLAYSTVGTPDYCAPEVFMQTGY | 2.28
RQLAYSTVGTPDYYAPEVFMQTGY | 2.28
RQLAYSTVGTPDYPAPEVFMQTGY | 2.39

Variant | protein stability index
RQLAYSTVGTPDYQAPEVFMQTGY | 2.66
RQLAYSTVGTPDYTAPEVFMQTGY | 2.69
RQLAYSTVGTPDYKAPEVFMQTGY | 3.11
RQLAYSTVGTPDYEAPEVFMQTGY | 2.92
RQLAYSTVGTPDYNAPEVFMQTGY | 2.95
RQLAYSTVGTPDYIAPETFMQTGY | 2.73
RQLAYSTVGTPDYIAPERFMQTGY | 2.66
RQLAYSTVGTPDYIAPEGFMQTGY | 3.16
RQLAYSTVGTPDYIAPEFFMQTGY | 2.28
RQLAYSTVGTPDYIAPENFMQTGY | 2.97
RQLAYSTVGTPDYIAPESFMQTGY | 3.06
RQLAYSTVGTPDYIAPEQFMQTGY | 3.1
RQLAYSTVGTPDYIAPEEFMQTGY | 3.62
RQLAYSTVGTPDYIAPEMFMQTGY | 2.29
RQLAYSTVGTPDYIAPEHFMQTGY | 2.51
RQLAYSTVGTPDYIAPEIFMQTGY | 2.09
RQLAYSTVGTPDYIAPEKFMQTGY | 2.25
RQLAYSTVGTPDYIAPEAFMQTGY | 2.46
RQLAYSTVGTPDYIAPEDFMQTGY | 3.57
RQLAYSTVGTPDYIAPEPFMQTGY | 2.31
RQLAYSTVGTPDYIAPELFMQTGY | 1.8
RQLAYSTVGTPDYIAPEWFMQTGY | 1.92
RQLAYSTVGTPDYIAPECFMQTGY | 2.58
RQLAYSTVGTPDYIAPEYFMQTGY | 3.3

Variant | protein stability index
RQLAYSTVGTPDYIAPAVFMQTGY | 2.08
RQLAYSTVGTPDYIAPQVFMQTGY | 2.22
RQLAYSTVGTPDYIAPYVFMQTGY | 1.78
RQLAYSTVGTPDYIAPCVFMQTGY | 1.8
RQLAYSTVGTPDYIAPFVFMQTGY | 1.9
RQLAYSTVGTPDYIAPIVFMQTGY | 2.17
RQLAYSTVGTPDYIAPPVFMQTGY | 2.12
RQLAYSTVGTPDYIAPWVFMQTGY | 1.44
RQLAYSTVGTPDYIAPLVFMQTGY | 1.76
RQLAYSTVGTPDYIAPVVFMQTGY | 1.83
RQLAYSTVGTPDYIAPSVFMQTGY | 2.21
RQLAYSTVGTPDYIAPTVFMQTGY | 1.98
RQLAYSTVGTPDYIAPHVFMQTGY | 2.22
RQLAYSTVGTPDYIAPDVFMQTGY | 2.79
RQLAYSTVGTPDYIAPMVFMQTGY | 1.68
RQLAYSTVGTPDYIAPKVFMQTGY | 2.08
RQLAYSTVGTPDYIAPNVFMQTGY | 1.97
RQLAYSTVGTPDYIAPGVFMQTGY | 2.39
RQLAYSTVGTPDYIAPRVFMQTGY | 2.71
RQLAYSTVGTPNYIAPEVFMQTGY | 2.76
RQLAYSTVGTPGYIAPEVFMQTGY | 2.11
RQLAYSTVGTPMYIAPEVFMQTGY | 2.59
RQLAYSTVGTPRYIAPEVFMQTGY | 3
RQLAYSTVGTPAYIAPEVFMQTGY | 2.21

Variant | protein stability index
RQLAYSTVGTPKYIAPEVFMQTGY | 2.31
RQLAYSTVGTPYYIAPEVFMQTGY | 1.82
RQLAYSTVGTPEYIAPEVFMQTGY | 2.43
RQLAYSTVGTPVYIAPEVFMQTGY | 1.59
RQLAYSTVGTPHYIAPEVFMQTGY | 2.54
RQLAYSTVGTPQYIAPEVFMQTGY | 2.72
RQLAYSTVGTPLYIAPEVFMQTGY | 2.43
RQLAYSTVGTPFYIAPEVFMQTGY | 1.98
RQLAYSTVGTPSYIAPEVFMQTGY | 2.68
RQLAYSTVGTPIYIAPEVFMQTGY | 1.81
RQLAYSTVGTPTYIAPEVFMQTGY | 2.91
RQLAYSTVGTPCYIAPEVFMQTGY | 1.98
RQLAYSTVGTPWYIAPEVFMQTGY | 2.08
RQLAYSTVGTPDMIAPEVFMQTGY | 2.57
RQLAYSTVGTPDHIAPEVFMQTGY | 2.42
RQLAYSTVGTPDDIAPEVFMQTGY | 3.26
RQLAYSTVGTPDAIAPEVFMQTGY | 2.9
RQLAYSTVGTPDTIAPEVFMQTGY | 2.92
RQLAYSTVGTPDQIAPEVFMQTGY | 3.01
RQLAYSTVGTPDFIAPEVFMQTGY | 1.93
RQLAYSTVGTPDWIAPEVFMQTGY | 1.88
RQLAYSTVGTPDNIAPEVFMQTGY | 3.57
RQLAYSTVGTPDIIAPEVFMQTGY | 3.12
RQLAYSTVGTPDGIAPEVFMQTGY | 3.08

Variant | protein stability index
RQLAYSTVGTPDVIAPEVFMQTGY | 2.33
RQLAYSTVGTPDKIAPEVFMQTGY | 2.92
RQLAYSTVGTPDCIAPEVFMQTGY | 3
RQLAYSTVGTPDPIAPEVFMQTGY | 2.75
RQLAYSTVGTPDEIAPEVFMQTGY | 3.29
RQLAYSTVGTPDSIAPEVFMQTGY | 4.05
RQLAYSTVGTPDLIAPEVFMQTGY | 2.15
RQLAYSTVGTVDYIAPEVFMQTGY | 1.89
RQLAYSTVGTQDYIAPEVFMQTGY | 2.49
RQLAYSTVGTFDYIAPEVFMQTGY | 1.85
RQLAYSTVGTGDYIAPEVFMQTGY | 3
RQLAYSTVGTCDYIAPEVFMQTGY | 2.57
RQLAYSTVGTTDYIAPEVFMQTGY | 2.44
RQLAYSTVGTHDYIAPEVFMQTGY | 2.58
RQLAYSTVGTNDYIAPEVFMQTGY | 2.78
RQLAYSTVGTRDYIAPEVFMQTGY | 1.8
RQLAYSTVGTYDYIAPEVFMQTGY | 2.57
RQLAYSTVGTDDYIAPEVFMQTGY | 2.36
RQLAYSTVGTEDYIAPEVFMQTGY | 3.13
RQLAYSTVGTIDYIAPEVFMQTGY | 2
RQLAYSTVGTADYIAPEVFMQTGY | 2.64
RQLAYSTVGTLDYIAPEVFMQTGY | 2.2
RQLAYSTVGTKDYIAPEVFMQTGY | 2.59
RQLAYSTVGTSDYIAPEVFMQTGY | 2.63

Variant | protein stability index
RQLAYSTVGTWDYIAPEVFMQTGY | 2.29
RQLAYSTVGTMDYIAPEVFMQTGY | 2.18
RQLAYSTVGTPDYIAPEVQMQTGY | 3.11
RQLAYSTVGTPDYIAPEVVMQTGY | 2.71
RQLAYSTVGTPDYIAPEVTMQTGY | 3.61
RQLAYSTVGTPDYIAPEVGMQTGY | 3.53
RQLAYSTVGTPDYIAPEVCMQTGY | 3.08
RQLAYSTVGTPDYIAPEVRMQTGY | 3.81
RQLAYSTVGTPDYIAPEVAMQTGY | 3.68
RQLAYSTVGTPDYIAPEVKMQTGY | 3.12
RQLAYSTVGTPDYIAPEVDMQTGY | 4.07
RQLAYSTVGTPDYIAPEVMMQTGY | 2.82
RQLAYSTVGTPDYIAPEVHMQTGY | 2.76
RQLAYSTVGTPDYIAPEVSMQTGY | 2.78
RQLAYSTVGTPDYIAPEVYMQTGY | 2.61
RQLAYSTVGTPDYIAPEVEMQTGY | 3.38
RQLAYSTVGTPDYIAPEVIMQTGY | 2.51
RQLAYSTVGTPDYIAPEVNMQTGY | 3.22
RQLAYSTVGTPDYIAPEVPMQTGY | 3.47
RQLAYSTVGTPDYIAPEVLMQTGY | 2.92
